{"source": "paper PMC2958364", "about": "(Journal of molecular biology, 2008)", "binders": {"B1": {"name": "MFE-23 (scFv, V domains shown)", "VH": "QVKLQQSGAELVRSGTSVKLSCTASGFNIKDSYMHWLRQGPEQGLEWIGWIDPENGDTEYAPKFQGKATFTTDTSSNTAYLQLSSLTSEDTAVYYCNEGTPTGPYYFDYWGQGTTVTVSS", "VL": "ENVLTQSPAIMSASPGEKVTITCSASSSVSYMHWFQQKPGTSPKLWIYSTSNLASGVPARFSGSGSGTSYSLTISRMEAEDAATYYCQQRSSYPLTFGAGTKLELK"}}, "key": {"[1]": {"molecular_target": "αvβ6 integrin on A375Pβ6 cells (Homo sapiens (A375P alpha-V, human …, UniProt P06756;P18564))", "sequence (P06756 31-1048, stated change not applied, chain 1 of 2)": "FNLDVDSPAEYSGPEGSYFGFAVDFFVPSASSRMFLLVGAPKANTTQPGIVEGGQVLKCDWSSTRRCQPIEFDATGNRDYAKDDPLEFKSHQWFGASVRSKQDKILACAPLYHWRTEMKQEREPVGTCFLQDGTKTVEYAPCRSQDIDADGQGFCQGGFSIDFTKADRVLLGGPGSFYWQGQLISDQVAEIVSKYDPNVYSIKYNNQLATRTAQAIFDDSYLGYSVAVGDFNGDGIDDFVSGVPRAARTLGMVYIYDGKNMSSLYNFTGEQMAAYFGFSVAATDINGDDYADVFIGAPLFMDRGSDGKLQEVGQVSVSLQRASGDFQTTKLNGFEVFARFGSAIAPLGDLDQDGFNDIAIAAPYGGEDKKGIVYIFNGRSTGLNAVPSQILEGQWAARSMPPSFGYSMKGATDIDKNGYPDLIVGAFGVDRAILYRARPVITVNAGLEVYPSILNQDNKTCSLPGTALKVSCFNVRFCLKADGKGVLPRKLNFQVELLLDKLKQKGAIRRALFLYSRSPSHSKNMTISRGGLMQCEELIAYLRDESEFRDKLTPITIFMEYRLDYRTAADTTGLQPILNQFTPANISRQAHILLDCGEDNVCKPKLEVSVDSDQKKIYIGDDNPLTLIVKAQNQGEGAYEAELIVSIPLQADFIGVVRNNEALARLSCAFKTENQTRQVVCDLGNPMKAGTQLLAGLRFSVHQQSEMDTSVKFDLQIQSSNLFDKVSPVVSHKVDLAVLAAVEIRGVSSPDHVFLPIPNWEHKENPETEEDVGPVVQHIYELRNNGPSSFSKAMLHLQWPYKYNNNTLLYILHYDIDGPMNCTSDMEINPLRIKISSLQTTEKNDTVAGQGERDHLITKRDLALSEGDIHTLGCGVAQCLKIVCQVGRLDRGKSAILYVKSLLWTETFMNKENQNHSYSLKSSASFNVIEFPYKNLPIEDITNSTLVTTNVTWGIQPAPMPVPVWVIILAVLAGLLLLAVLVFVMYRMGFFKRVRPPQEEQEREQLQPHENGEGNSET", "sequence (P18564 22-788, chain 2 of 2)": "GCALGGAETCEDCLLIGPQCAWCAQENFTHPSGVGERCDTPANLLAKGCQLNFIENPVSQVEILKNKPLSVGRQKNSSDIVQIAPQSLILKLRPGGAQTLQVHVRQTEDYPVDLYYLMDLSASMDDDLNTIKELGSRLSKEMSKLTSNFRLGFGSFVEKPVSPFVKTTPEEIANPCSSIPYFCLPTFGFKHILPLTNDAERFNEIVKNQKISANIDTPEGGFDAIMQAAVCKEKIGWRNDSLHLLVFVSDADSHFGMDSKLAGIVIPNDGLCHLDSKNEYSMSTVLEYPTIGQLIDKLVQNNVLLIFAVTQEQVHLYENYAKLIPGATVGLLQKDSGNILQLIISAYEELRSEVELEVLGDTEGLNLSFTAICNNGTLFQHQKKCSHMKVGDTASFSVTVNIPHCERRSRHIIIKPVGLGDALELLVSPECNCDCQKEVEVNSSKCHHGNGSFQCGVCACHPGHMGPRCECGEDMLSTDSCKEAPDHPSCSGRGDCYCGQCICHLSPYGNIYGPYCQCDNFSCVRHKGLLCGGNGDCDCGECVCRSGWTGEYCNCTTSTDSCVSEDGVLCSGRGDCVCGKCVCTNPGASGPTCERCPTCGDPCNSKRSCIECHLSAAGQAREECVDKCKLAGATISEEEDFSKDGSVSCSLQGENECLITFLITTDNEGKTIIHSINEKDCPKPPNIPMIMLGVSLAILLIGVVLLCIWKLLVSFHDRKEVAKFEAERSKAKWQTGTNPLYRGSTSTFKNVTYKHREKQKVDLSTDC", "assay": "flow cytometry on cells"}, "[2]": {"molecular_target": "αvβ3 integrin, immobilized (Homo sapiens (assumed), UniProt P06756;P05106)", "sequence (P06756 31-1048, chain 1 of 2)": "as the sequence (P06756 31-1048, stated change not applied, chain 1 of 2) above", "sequence (P05106 27-718, chain 2 of 2)": "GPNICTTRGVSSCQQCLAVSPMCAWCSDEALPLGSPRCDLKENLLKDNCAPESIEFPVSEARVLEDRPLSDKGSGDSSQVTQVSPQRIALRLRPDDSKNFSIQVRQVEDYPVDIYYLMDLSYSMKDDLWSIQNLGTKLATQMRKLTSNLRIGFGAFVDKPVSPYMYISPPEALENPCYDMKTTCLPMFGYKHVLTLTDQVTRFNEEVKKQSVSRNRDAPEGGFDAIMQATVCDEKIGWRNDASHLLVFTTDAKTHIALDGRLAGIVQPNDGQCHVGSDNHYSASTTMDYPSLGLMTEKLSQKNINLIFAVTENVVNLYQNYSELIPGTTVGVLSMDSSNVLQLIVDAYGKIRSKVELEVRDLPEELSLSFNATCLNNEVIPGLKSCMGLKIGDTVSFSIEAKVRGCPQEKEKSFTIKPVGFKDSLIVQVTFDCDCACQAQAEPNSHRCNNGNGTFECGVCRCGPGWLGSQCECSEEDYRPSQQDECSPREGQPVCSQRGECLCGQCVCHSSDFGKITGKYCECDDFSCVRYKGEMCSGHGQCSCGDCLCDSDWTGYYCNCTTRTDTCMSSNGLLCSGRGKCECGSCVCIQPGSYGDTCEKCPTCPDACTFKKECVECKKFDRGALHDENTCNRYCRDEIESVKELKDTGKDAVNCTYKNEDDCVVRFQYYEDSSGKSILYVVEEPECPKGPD", "assay": "ELISA"}, "[3]": {"molecular_target": "αvβ6 integrin, purified from CHO αvβ6 cells (Homo sapiens (assumed), recombinant …, UniProt P06756;P18564)", "sequence (P06756 31-1048, chain 1 of 2)": "as the sequence (P06756 31-1048, stated change not applied, chain 1 of 2) above", "sequence (P18564 22-788, chain 2 of 2)": "as the sequence (P18564 22-788, chain 2 of 2) above", "assay": "ELISA"}}, "data": [{"binder": "B1", "values": [{"measurement": "binding result", "setting": "[1]", "value": "no binding (tested: 50 μg/ml)"}, {"measurement": "binding result", "setting": "[2]", "value": "no binding (tested: 5 μg/ml)"}, {"measurement": "binding result", "setting": "[3]", "value": "no binding (tested: 5 μg/ml)"}]}]}
